Measured values from patent US20100055103A1 (Genentech, published 2010).
Values belong to the binder of their own block, whether it stands above or below them.

Legend:
[1] = target: T1, Human IL-17F (R&D Systems, cat #1335-IL-025/CF) (human, UniProt Q96PD4 31-163); experiment: screening of cross-reactive clones; assay not given
T1 construct: That entry is derived from the native cDNA and may include the signal peptide; also called rhIL-17F; recombinant human IL-17F
T1 sequence: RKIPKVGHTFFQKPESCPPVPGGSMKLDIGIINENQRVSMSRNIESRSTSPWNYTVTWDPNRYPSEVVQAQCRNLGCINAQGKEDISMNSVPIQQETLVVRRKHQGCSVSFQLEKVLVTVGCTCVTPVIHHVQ

[2] = target: T2, Recombinant human IL-17A/F heterodimer (human, UniProt Q16552 24-155; Q96PD4 31-163); experiment: as above
T2 construct: also called IL-17A/F (GNE)
T2 sequence (Q16552 24-155 limits assumed, one chain of several): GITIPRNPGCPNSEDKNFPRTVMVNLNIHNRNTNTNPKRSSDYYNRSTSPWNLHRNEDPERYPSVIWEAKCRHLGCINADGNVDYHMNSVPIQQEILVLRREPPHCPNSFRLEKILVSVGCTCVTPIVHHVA

[3] = target: T3, Human IL-17F dimer (baculovirus/Hi5-expressed, His-tag removed by thrombin) (human, UniProt Q96PD4 31-163, limits assumed); experiment: X-ray crystal structure, content of the asymmetric unit
T3 construct: The N-terminal His-tag and thrombin site were introduced and then cleaved off; also called purified recombinant IL17F
T3 sequence: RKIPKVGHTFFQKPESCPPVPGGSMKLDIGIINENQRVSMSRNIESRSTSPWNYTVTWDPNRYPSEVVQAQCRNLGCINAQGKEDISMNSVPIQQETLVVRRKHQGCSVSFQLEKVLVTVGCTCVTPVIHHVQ

[4] = target: T1, Human IL-17F (R&D Systems, cat …); experiment: BIAcore SPR, IgG captured by anti-human Fc

binding result [1]: binds
binding result [2]: binds
B1: YW278.15 (antibody, V domains shown)
VH: EVQLVESGGGLVQPGGSLRLSCAASGFTFTDYDISWVRQAPGKGLEWVASISPSDGYTYYADSVKGRFTISADTSKNTAYLQMNSLRAEDTAVYYCARYLYWSYVMDYWGQGTLVTVSS
VL: DIQMTQSPSSLSASVGDRVTITCRASQDVSTAVAWYQQKPGKAPKLLIYSASFLYSGVPSRFSGSGSGTDFTLTISSLQPEDFATYYCQQSYTTPPTFGQGTKVEIKR

binding result [3]: binds
B2: Fab fragment of YW 278.15.18.C55S (Fab, V domains shown)
VH: EVQLVESGGGLVQPGGSLRLSCAASGFTFTDYDISWVRQAPGKGLEWVASISPPDSYTYYADSVKGRFTISADTSKNTAYLQMNSLRAEDTAVYYCARYLYWSYVMDYWGQGTLVTVSS
VL: DIQMTQSPSSLSASVGDRVTITCRASQDVSTAVAWYQQKPGKAPKLLIYSASFLYSGVPSRFSGSGSGTDFTLTISSLQPEDFATYYCQQSYTAKLTFGQGTKVEIKR
notes: also called YW278.15.18C55S Fab

binding result [4]: binds
B3: YW278.15.18 (antibody, V domains shown)
VH: EVQLVESGGGLVQPGGSLRLSCAASGFTFTDYDISWVRQAPGKGLEWVASISPPDCYTYYADSVKGRFTISADTSKNTAYLQMNSLRAEDTAVYYCARYLYWSYVMDYWGQGTLVTVSS
VL: DIQMTQSPSSLSASVGDRVTITCRASQDVSTAVAWYQQKPGKAPKLLIYSASFLYSGVPSRFSGSGSGTDFTLTISSLQPEDFATYYCQQSYTAKLTFGQGTKVEIKR

binding result [4]: binds
B4: YW278.15.2 (antibody, V domains shown)
VH: EVQLVESGGGLVQPGGSLRLSCAASGFSFIDYDISWVRQAPGKGLEWVASISPYDGYTYYADSVKGRFTISADTSKNTAYLQMNSLRAEDTAVYYCARYLYWSYVMDYWGQGTLVTVSS
VL: DIQMTQSPSSLSASVGDRVTITCRASQDVSTAVAWYQQKPGKAPKLLIYSASFLYSGVPSRFSGSGSGTDFTLTISSLQPEDFATYYCQQYYIYPATFGQGTKVEIKR
